# Results from the DeepSol protein solubility set.
# Experiment: soluble on expression in E. coli; label from the status in PepcDB or PDB records
row,Sequence,soluble on expression in E. coli
1,MGSDKIHHHHHHMMGGKTLVLLDERLISLSMTDNRGFDADQVTLSVDDADGLLQLPPRGADLSVSIGWKGEALVYKGVFIVDEVAHSGPPDTLEVTARSADFRDEFNVKREISWHDLTVERVVSAIAHRYKLKPVISAQLMDLEIDHADQTQESDMSFLTRMAEMLGAIATVKNGCLLFILPGGGVSASGKPLPAAEITRSSGDRHSFRIADRDAYTGVRAYWLDLNFGKKKKVSVKRRKAKPKKEKSSSREGDYMEGEDGNVYVLRKTYQNETAAKRAAAAKWQQLQRGAAQFSITLARGRADLYPEVHVSVSGFKADIDNQEWIISRVEHVIDGSGFTSRLELEAKIADWIAESD,not soluble
2,MGSDKIHHHHHHMMKAQFTLTPSESKRLIAKGVKALPILRKALQNHTIILAGGTTNGFLVEELLNETLAEKTRYTVGLIADGKTGESKEEQRIPPFIIAKGKALDRSLHWKDFLPQLEPGDVFIKGGNALDSTGLAAVLVSNSMAGTIGAALGPLYARGVRLVVPIGLEKLIPDVREAVEFMASAPADTALGAKTGLVPMLGATVVTEITALETLYQVTAKCIGAGGVAGSEGAVTLVIEGEAAEVESALSLIQSCKGEPPVR,not soluble
3,MGSDKIHHHHHHMMLRASYGTIRKVNGNSSLEMDTAYLMLGERCVYNCLYCAQSRSSTSPSHFLSRVTWKEVSEDLLGKLNDRFKRVCIQVVSYPSYGKDLRLIIPRFRIPVSVSVRAVSIEEVVEYFELGADRVGIAVDVPNKTLFEKIRGGKYERHLHILEKVSEMFPGRITTHVIVGLGESDKDIVDFTVWARERNIVVSLFAFTPIKGTAFENRERPSLERYRKIQLVTYLLEKNLIKPENIIFDSNGKIIDVEWNGEFPEEALRTRGCPHCTRPYYNESPRGPIYNVHWR,not soluble
4,MGSDKIHHHHHHMMNDRDERWDRIAGKLDTLLDRFDRFLDGHIPPPPPDGRLFERHLAFRWRRTGEGGAFLPVEHPHLPDLDDLMGIDLVRDELVRNTGQFVVGYPANNVLLWGERGTGKSTCVKGLLRRFSEEGLRLVEVLRDDLCTLPAIIAPLRKMPQRFILFCDDLSFGEGEGGYRELKVLLEGGIEERPSNILFYATSNRRHLLPERMEDNLGGEIHPEEAVSEKLSLADRFGLNLSFYSFDQDTYLAIVARYAEKFSLPMGGEALRREALQWAIFKGSRSGRSARQFVDDLAGRLRVALPAEK,not soluble
5,MGSDKIHHHHHHMMNQFFEPPRVEALHVQNYRALQNVRLDSITPLTVLLGPNGSGKSTLVDVFAFLSECFGEGLRKAWDRRGRFRELRSRDSVGPIVIELQYREKPGTPLITYHLEIDEKDRGPVVKREFLRWKRTHPGAPFYFLDYREGVGRVITGEQPESQDKRIEKPLSGPDVLAVNTLGQLAENPRVIALRAFITSWHLSYLSADAARGNPEAGAEERLSQTGDNLANVIQYLGEEHPERLNKIFETLKRRVPRIEKVTSRPLDDGRLLLQVKDAPFSSPVLARFASDGTLKMLAYLILLYDPEPPQLIGIEEPENYLHPRLLPELAEECDMASERTQLIVTTHSPFFIDRLRPEQVRVLYRGADGYTRAKRVADMRGIGEFLEAGASLGDLWMEGHFDVGDPLAGEEGA,not soluble
6,MGSDKIHHHHHHMMQNNPFPYSNTEKRYHTLNYHLREHFGHKVFKVALDGGFDCPNRDGTVAHGGCTFCSAAGSGDFAGNRTDDLITQFHDIKNRMHEKWKDGKYIAYFQAFTNTHAPVEVLREKFESVLALDDVVGISIATRPDCLPDDVVDYLAELNERTYLWVELGLQTVHERTALLINRAHDFNCYVEGVNKLRKHGIRVCSHIINGLPLEDRDMMMETAKAVADLDVQGIKIHLLHLLKGTPMVKQYEKGKLEFLSQDDYVQLVCDQLEIIPPEMIVHRITGDGPIELMIGPMWSVNKWEVLGAINKELENRGSYQGKFFQRLEEESAL,not soluble
7,MGSDKIHHHHHHMMRLLCFIDYLGSGGAQRQLTFLARHLKKSGVDVEVLTYHESDFFIPVLAEAGINVETVRGGGRFTKVFSLRKSIRARKFDVLLAFLNAPALYAEIAALPRRRWGLVVSERLAVPGSSMGFARFRRYLHGLADYVTTNSHTNRLLIEKAVPGLTGKVVTIYNALDLEYFSPLQGPVPAGDGRLRFVVLASHQLKKNLLGLVEAAHQVVQAAPELDFTIEWFGRFDAGKNGPGDTGPFEQAKRRIETFRIQDRFIFSEPTSDVAAVYRRADALILPSFYEGLPNVVCEAMACGRPVLMSNVCDAENLVREGDNGFLFDPRDPADMARAILRFAALSGDDRKLMGEKSRKRAVILFNPERFAAHYRRVLESAMRREQTIIPHWCESIPQSAIRMIENEK,not soluble
8,MGSDKIHHHHHHMMSGLVYRKRRRQNMTALERSWFEEAQQSMHGWDFSHLAGRWQTADLPWDYAALVREHLSADDRWLDIDTGGGELMGRFNPQPALTAVTEGWQPNIELLKQTVVKKGITLYPDAAEQLTAVPNSTFDIVTNSHGAMPVKRIAEVLKPGGRFVTQQVGATNNYALSRFFDEHYETAYPDNQLLTVMAQMQAAGFEILRAEQAYAALSFTDVGAIVYYATVIPWEFPHFDVARMLPKLHQLQSLLAINGRVTTFEDRFMIIARKLARRD,not soluble
9,MGSDKIHHHHHHMMSKYPLLGMTLIELQSLVKRLGMPGFAAKQIASWLYDKKVTSIDEMTNLSLKYRELLKQNYEVGAEAPVEEMRSVDGTVKYLYPVGENHFVESVYIPDDERATLCISSQVGCKMNCKFCMTGKQGYSANLTAHQIINQIHSLPERDKLTNVVMMGMGEPLDNLEEVLKALDILTGSYGYAWSPKRITVSTVGLRKGLRRFIEESDCHLAISLHSPVTAQRAELMPAEKAFSITEMVELLKNYDFSKQRRLSFEYIVFKGLNDSQVYAKELLKLLRGLDCRMNLIRFHSIPGVALEGADMDTMTRFRDYLTTHGLFTTIRASRGEDIFAACGMLSTAKQEENNKS,not soluble
10,MGSDKIHHHHHHMMSMKIFETTAPHPEASLLTAFSKNALDRFAEKRTEECVAEALKVDGTHIFAFSGNRLVLKHDEQVIDPLFSAYELAELQPDFDNAVLLGYRETGEPRIAVPVAVAEDQLASHYKLADARTLYRDHLLDEELLSEVAQAVSLTHWNADNRFCGRCGGTMEQRIGGYKRICASCSHTIFPRTDPVVIMMTIDIERDLCLLGRGAHFASGMYSCLAGFVEPGETIEQAVRRETHEESGVEIGRVRYHASQPWPMPHTLMIGCYAEALSSDIARDEIELEDCRWFTREEVAKMLEAPAGEGFSAPPIGAIAHRLMRDWVEWPE,not soluble
11,MGSDKIHHHHHHMNADIKISFIDNIDKISASDWQNLNNSPCPFLRYNFFNALEKSESASAKQGWQAHHLVATNNNDVTAVMPMYLKSHSWGEYVFDWDWADAFKRNDIDYYPKLVATIPFTPVSSDKLLTSQGHVNELFEPLIEHCQQENINSWHILYCNEIRTALPEDVYQRNTVQFHWFNRDYETFDDFLNTFTSRKRKNTRKERLSIIEQEIDIRQLKNNEISQQDLEFFYLTYQLTYLKRGHQPHLSYEFFKQIVADMADNILLIIASHEQEDIACALFFYDDSQLYGRYWGCTKHYNNLHFELCYYRGIEFCIQNKLQSFNPGTQGEHKIQRGFEPVLTYSYHWVKHVPFRMAIKNFCQQEQQHMLTYQEQCQQVLPFRKI,not soluble
12,MGSDKIHHHHHHMNAVPKDEMTPLERMAAFAAGKPYDRIPCSSFSGETACHFIGTTVSEYRHSAKLMARVETVTYKMFGHDGAGVGPGFLALAEAMGTELKYPEDNIPFVANPVLKNWDDFDKLEPADPHKDGKLPIYLEALAMIKDAIGDEVPIGSSVGGPFTTAALVRGTENFLKDLRRNPEMAHRLLQLVTNTTLNYIDAVMDMGCSVSIGDPTASGSLLSVKQFREFAKPYLSKLADRVIERTGKGPMLHICGDSTPIWSDMADTGAPTLSLDNVIDLAEAKKVVGERVCIMGNVKPIDTIMKGSHQQIEAEVKECLRKAYDSPKGFILAVGCQVPLGTTADNFMCFMNAARKYGRYPLNPDNFI,not soluble
13,MGSDKIHHHHHHMNEAAKQLYITQPSLSNAVRNLETEMGIQIFIRNPKGITLTKDGMEFLSYARQILEQTALLEERYKGDNTSRELFSVSSQHYAFVVNAFVALFNGTDMTQYELFLRETRTWEIIDDVKNFRSEIGVLFLNSYNRDVLTKLFDDNSLIATTLFTTTPHIFVSKSNPLANRKKLNMKDLEDYPYLSYDQGLHNSFYFSEEMMSQIPHPKSIVVSDRATLFNLMIGLDGYTVATGILNSKLNGDEIVAIPLDVDDVIDIVYIRHDKANLSKMGQKFIDYLLEEVSFNHKNKQS,not soluble
14,MGSDKIHHHHHHMNEAQQERRRSVRRDLHSYPEPAWREFYTTSRIAEEIERIGVDQLYIGRNVVDGDARMAVPDDDELEDWQRKARDAGAREDVLEAAAGGFTGALAVLEQGEGPTVALRVDIDALPITESDSVAHAPATEEFRSTNEGYMHACGHDAHATIGLGVLEAVKESDFKGTFKVVFQPAEEVIGGGKAVAESGHLDDVDHLLAIHIGLDHPTGEIVAGVGGFLAVRQFEATFTGETAHAGGHPAQGRDAVQALATAVQNLHAIRRHGDGATRVNAGVVEGGTATNIVPGEATLEGEVRGETTPLKEYMSERADTVMSSAAEMHDCEVAIETTAEAPSAVSDDALAGVVYDAADSVPGVTSRLRTDDLGGSEDATYLMDRVQNHGGTATFVGIGTDHPGGHHTPLFDIDEDSLTIGIDVVTEAISQLSG,not soluble
15,MGSDKIHHHHHHMNEKEYEERLRIETIDIQHLYNAFSHYNRYEPTPYAALEELCAVYPFDYTDTVIDFGCGKGRLNFYLHDRFDCSVIGVEMNGQFYEDALMNQVTYMKKMKRRRGSIRFEHTYAEAYPIPDDVTKCYFFNPFSVQIFMKVVDQILASVERHPRPVDLILYYPADEYRYYLENQTIFEQVEEVRLKELFEKNHDERFVIYRVNLSQEVPKRV,not soluble
16,MGSDKIHHHHHHMNELQNFNFEGNEVRTVLINDEPYFVGKDVATAIGYQNTRKAIKDHVKTKYMREERIVTPSGTQTMTVISEPGIYQLAGQSKLPTAEPFQDWIYEEVLPSIRKHGAYMTDEKIEEALLNPDTIISLATQLKNEREKVEVERNGRLIAEQRVEELQPKADYYDQILSNKGVVTVTSIAKNYGMTAPELNKLLNRLGVQYSQSGSWYLYKKYQKNGYTHTIPVPYSHRDGRPDIKPQTKWTQKGHIFIYQLLKEHGILPMIEMKDESAV,not soluble
17,MGSDKIHHHHHHMNEREICERIAEILNLEHDCSKGIDDLLKILEYEINEYRKSLEEQAMFMEAQIEELSRSYEEISTLLEISEIFGTFEFPLNLQDKLEKVIRLLRNVIKFESYLVHLESELTVGDLNREEIEPEIGNPEKTVLIEPGKSEKFSNLLFVPIKGNKYYGYVCFVGKEDGGVFTAGDRKIAEMTARYIASALDRLDFLKKEIERERLEEQLNIARQIQTNLLPRKIPEIGFVEADACSQPAVQVGGDYYDFFVSQEKRFLTVVGDVAGKSVPAALLMSAVRSYLKVLVTTCPDLEKLVNRLNTILCEDMTNDRFVTMAFIEISPDGTLNLINAGHNPVYFLHKGELVKIEASAIPIGITEWEYKKHTIHLKPDTFVISYSDGLTEARNEAGEEFGYERLEKILREFKGETPAELLEALRKRVKSFMGDAQQHDDMTIVVLKYKGQQEVE,not soluble
18,MGSDKIHHHHHHMNFIKTISPIQKINFNGFEFYIKRDDLLGEINGNKARKLAFYIHQRYPKNQSFVSYGGSQSNALAALSIFAKQRSYKLVFACEKISTFLKNNPCGNYALALENGVDFVENIHSLSLKQFALSLCKKDDVFIEQGIANLEAQYGYMELAQEIQMQSQSLKLDFDIFLPSGTGTSAAFLAKYSKFKVFTCACVGDIKYLKKQILTLDPSYDFSNLEFLTSDKKYHFAKPYKEFYELYMDLKLKCNIEFDLLYDILGLSIALKQEWKKPLLYIHQGGILGNSTMLERYKFKKSV,not soluble
